From patent US6548060 (dated 2003) come the findings set out here.

To fix the notation:
B1: N-terminal 236 aa extension of human glutaminyl-tRNA synthetase (other, UniProt P47897 1-236, looked up)
chain: MAALDSLSLFTSLGLSEQKARETLKNSALSAQLREAATQAQQTLGSTIDKATGILLYGLASRLRDTRRLSFLVSYIASKKIHTEPQLSAALEYVRSHPLDPIDTVDFERECGVGVIVTPEQIEEAVEAAINRHRPQLLVERYHFNMGLLMGEARAVLKWADGKMIKNEVDMQVLHLLGPKLEADLEKKFKVAKARLEETDRRTAKDVVENGETADQTLSLMEQLRGEALKFHKPGE
notes: range 1-236; LexA fusion in yeast two-hybrid; GST fusion (pGEX4T-2), purified, in the in vitro pull-down; Myc-tagged from pcDNA3 in 293 cells for co-IP; also called QRS-N; LexA-QRS-N
B2: C-terminal 137 aa peptide of human Daxx (G604-D740) (other, UniProt Q9UER7 604-740, looked up)
chain: GAGMVSSTSFNGGVSPHNWGDSGPPCKKSRKEKKQTGSGPLGNSYVERQRSVHEKNGKKICTLPSPPSPLASLAPVADSSTRVDSPSHGLVTSSLCIPSPARLSQTPHSQPPRPGTCKTSVATQCDPEEIIVLSDSD
notes: range 604-740; B42 fusion in yeast two-hybrid; His fusion (pET28a), purified, in the in vitro pull-down; also called Daxx-C; B42-Daxx-C

The target of one assay is T1, human Daxx, full-length (human, UniProt Q9UER7 1-740).
T1 construct: range 1-740; Expressed from pcDNA3 in 293 cells for co-IP; also called B42-Daxx; pcDNA3-Daxx
Description: summary of the experiments in the legend of FIG. 1.

In assay [1] the target is T2, ASK1 (apoptosis signal-regulating kinase), full-length (UniProt Q99683 1-1374, limits assumed).
T2 construct: Full-length; LexA fusion in yeast two-hybrid; HA-tagged (pcDNA3-HA-ASK1, gift of Dr. Ichijo) in 293 cells for co-IP and the MBP kinase assay; Flag-tagged in the GST-SEK1 kinase assay; also called ASK1-F; HA-ASK1
T2 sequence (looked up): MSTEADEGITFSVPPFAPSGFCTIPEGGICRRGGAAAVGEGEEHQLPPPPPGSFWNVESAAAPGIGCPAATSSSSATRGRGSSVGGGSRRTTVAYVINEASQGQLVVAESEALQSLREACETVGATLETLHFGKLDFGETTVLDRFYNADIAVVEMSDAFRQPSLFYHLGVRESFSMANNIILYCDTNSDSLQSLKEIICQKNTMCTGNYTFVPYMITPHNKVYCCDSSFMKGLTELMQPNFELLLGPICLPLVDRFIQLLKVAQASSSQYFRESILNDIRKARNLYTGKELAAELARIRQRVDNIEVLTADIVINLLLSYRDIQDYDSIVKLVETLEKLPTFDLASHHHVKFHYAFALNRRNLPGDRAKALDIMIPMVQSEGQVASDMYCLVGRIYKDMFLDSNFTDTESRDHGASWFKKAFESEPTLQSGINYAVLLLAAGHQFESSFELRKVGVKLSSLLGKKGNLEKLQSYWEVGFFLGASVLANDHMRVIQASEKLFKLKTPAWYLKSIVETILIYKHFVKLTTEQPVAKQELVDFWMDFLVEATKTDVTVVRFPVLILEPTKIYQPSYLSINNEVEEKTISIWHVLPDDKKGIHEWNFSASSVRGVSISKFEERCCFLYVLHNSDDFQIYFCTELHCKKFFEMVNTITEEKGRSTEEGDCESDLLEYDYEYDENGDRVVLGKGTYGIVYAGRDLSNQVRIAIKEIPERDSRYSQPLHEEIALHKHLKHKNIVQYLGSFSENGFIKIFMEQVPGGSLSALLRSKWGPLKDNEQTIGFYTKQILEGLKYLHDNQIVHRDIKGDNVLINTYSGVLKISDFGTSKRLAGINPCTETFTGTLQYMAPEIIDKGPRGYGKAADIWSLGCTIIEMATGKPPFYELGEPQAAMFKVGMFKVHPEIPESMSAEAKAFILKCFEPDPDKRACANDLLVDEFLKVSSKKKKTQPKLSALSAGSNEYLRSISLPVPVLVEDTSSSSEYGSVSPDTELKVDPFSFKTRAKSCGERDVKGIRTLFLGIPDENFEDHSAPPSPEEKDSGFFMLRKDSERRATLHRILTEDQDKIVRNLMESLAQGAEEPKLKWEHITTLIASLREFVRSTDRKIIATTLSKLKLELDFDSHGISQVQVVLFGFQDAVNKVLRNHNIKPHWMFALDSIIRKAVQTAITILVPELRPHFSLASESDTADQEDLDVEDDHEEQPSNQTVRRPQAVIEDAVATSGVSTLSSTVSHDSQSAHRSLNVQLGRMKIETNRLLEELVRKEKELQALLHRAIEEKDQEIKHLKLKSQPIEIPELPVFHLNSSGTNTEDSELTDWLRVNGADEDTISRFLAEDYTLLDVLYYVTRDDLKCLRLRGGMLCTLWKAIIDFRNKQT
The experiment in a line: co-immunoprecipitation with anti-HA antibody from 293 cells (FIG. 3A). As for the experimental part:
Figure 3: FIG. 3. Interaction of QRS-C and ASK1-N. A. The cDNA (4 ug each) encoding QRS-F. -N or -C (Myc tagged) cloned in pcDNA3 was transfected into 293 cells in 100-mm dishes with 0.5 ug pcDNA3-HA-ASK1 (a kind gift of Dr. Ichijo, Tokyo university, Japan). Co-immunoprecipitation between HA-ASK1 and QRS was carried out as described previously (11) using anti-HA antibody (Santa Cruz). The precipitated proteins were resolved in 10% SDS-polyacrylamide gel, and the presence of QRS-F and -N, and -C were detected by immunoblotting with anti-QRS (17) and Myc (9E10, Boehringer Mannheim) antibodies, respectively. -B. pcDNA3-QRS-F (4 ug) was co-transfected into 293 cells with pcDNA3-HA-ASK1-F (full length) or -N (N-terminal 649 aa) (4 ug each). The cells were harvested after 24 hrs and the ASK1 peptides were precipitated with anti-HA antibody and co-precipitation of QRS was determined by immunoblotting with anti-QRS antibody. […]
Since ASK1 is the immediate downstream kinase of Daxx, we tested whether QRS also interacts with ASK1. The interaction of the two proteins was determined by co-immunoprecipitation. […] Since the N-terminal 649 aa peptide was previously determined to be a regulatory domain interacting with Daxx, (FIG. 1), we tested whether QRS interacts with ASK1-N or -C. […]

Assay [2] concerns the target T3, human glutaminyl-tRNA synthetase, full-length (human, UniProt P47897 1-775).
T3 construct: range 1-775; Fused to LexA in the yeast two-hybrid assay (pEG202); also called QRS; QRS-F
T3 sequence (looked up): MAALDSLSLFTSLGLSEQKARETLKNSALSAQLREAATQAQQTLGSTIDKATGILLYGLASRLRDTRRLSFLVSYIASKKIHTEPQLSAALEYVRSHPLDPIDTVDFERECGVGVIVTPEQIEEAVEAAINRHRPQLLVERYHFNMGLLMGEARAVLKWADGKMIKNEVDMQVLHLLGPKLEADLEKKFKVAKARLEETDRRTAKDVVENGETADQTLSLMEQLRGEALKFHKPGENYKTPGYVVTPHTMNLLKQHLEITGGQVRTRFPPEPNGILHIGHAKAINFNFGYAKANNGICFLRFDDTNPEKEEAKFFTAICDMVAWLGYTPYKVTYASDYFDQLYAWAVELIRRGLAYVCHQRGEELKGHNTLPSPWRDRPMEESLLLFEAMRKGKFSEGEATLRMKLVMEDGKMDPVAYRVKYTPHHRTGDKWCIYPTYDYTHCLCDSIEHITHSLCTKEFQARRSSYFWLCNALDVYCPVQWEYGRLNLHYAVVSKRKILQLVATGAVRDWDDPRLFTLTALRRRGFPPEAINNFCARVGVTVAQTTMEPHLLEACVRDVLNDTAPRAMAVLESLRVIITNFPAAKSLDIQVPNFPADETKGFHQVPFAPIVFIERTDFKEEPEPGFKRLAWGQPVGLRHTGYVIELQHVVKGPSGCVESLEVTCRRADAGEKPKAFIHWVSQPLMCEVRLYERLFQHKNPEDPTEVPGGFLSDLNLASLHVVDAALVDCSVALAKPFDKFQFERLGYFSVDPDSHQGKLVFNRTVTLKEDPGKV
Description: yeast two-hybrid (FIG. 2A). As for the experimental part:
(§1) Figure 2: FIG. 2. Interaction of QRS-N and Daxx-C. A. (upper panel) The interaction of QRS and Daxx was mapped by yeast two hybrid analysis. The full-length (F), N-terminal 236 aa (N) and C-terminal 539 aa (C) peptides of QRS, and the full-length ASK1 were fused to LexA (DNA-binding protein). […] The pairs of LexA and B42 hybrid proteins were expressed in a yeast tester strain and the positive interactions were determined by the formation of blue colonies as described previously (8). […] Daxx-C and QRS-N were expressed as His (pET28a, Novagen) and GST (pGEX4T-2, Amersham Pharmacia Biotech) fusion proteins, respectively and purified following the manufacturer's instructions. The purified His-Daxx-C (5 ug) was mixed with GST or GST-QRS-N (5 ug) at 4° C. for 30 min in 20 mM sodium phosphate buffer, pH 7.8, containing 500 mM NaCl. The GST proteins were precipitated with the GST resin (10 ul) and the precipitated proteins were eluted and resolved by 12% SDS-polyacrylamide gel electrophoresis and stained with Coomasie blue. Figure 2:
(§2) Human Daxx was originally identified to be associated to Fas to mediate apoptotic signal ( 10) to its downstream kinase, ASK1 (11). The activation of ASK1 then results in activation of Jun N-terminal kinase (JNK) and p38 for cellular apoptosis (12). The interaction between QRS and Daxx was further refined by yeast two hybrid analysis. […]

Assay [3] addresses T4, N-terminal 610 aa peptide of Daxx (human, UniProt Q9UER7 1-610).
T4 construct: range 1-610; Yeast two-hybrid construct; 610 aa overlaps Daxx-C (604-740) by a few residues as printed; also called Daxx-N
The experiment in a line: yeast two-hybrid (FIG. 2A lower panel). As for the experimental part:
as §1, with “Interaction” for “Figure 2: FIG. 2. Interaction”
as §2

Assay [4] concerns the target B1. Description: in vitro pull-down, purified His-Daxx-C with GST-QRS-N on GST resin, Coomassie-stained gel (FIG. 2B). As for the experimental part:
as §1
The interaction between the Daxx-C and QRS-N was confirmed by in vitro pull down experiment. Daxx-C and QRS-N were expressed as His and GST fusion proteins, respectively. The purified two fusion proteins were then mixed and precipitated with the GST resin. Daxx-C was co-precipitated with QRS-N, confirming the direct interaction between the two molecules (FIG. 2B).

T4 sequence (Q9UER7 1-610 limits assumed): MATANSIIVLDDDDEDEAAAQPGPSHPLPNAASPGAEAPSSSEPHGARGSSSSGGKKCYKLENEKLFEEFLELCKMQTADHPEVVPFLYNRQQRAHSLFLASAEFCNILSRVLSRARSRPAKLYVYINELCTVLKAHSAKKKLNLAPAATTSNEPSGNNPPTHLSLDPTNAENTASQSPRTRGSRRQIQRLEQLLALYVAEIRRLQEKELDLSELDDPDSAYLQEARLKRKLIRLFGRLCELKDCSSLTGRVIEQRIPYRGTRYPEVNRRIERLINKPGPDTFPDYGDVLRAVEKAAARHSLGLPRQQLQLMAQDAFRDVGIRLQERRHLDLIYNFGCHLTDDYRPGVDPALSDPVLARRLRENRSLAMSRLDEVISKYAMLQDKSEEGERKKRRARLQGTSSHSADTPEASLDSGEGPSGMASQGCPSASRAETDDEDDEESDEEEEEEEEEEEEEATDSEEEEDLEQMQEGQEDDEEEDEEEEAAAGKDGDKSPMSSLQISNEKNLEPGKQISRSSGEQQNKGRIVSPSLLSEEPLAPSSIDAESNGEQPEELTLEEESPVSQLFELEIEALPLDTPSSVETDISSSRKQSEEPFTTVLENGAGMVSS

For the molecule B1, the binding result is on record as “binds” with human Daxx, full-length and “no binding” in assay [1].

As to B2, the binding result in assay [2], in assay [3] and in assay [4] was “binds” throughout.
